# Data published in patent US20150160214A1, “Quantitation of Cellular Adhesion Dynamics Across Immobilized Receptors Under Rheological Shear Flow” (Mayo Foundation for Medical Education and Research, priority 2013, published 2015).
# Experiments:
# [1] = Temperature-induced unfolding by fluorescence and CD, irreversible models (Example 1); assay type: physicochemical
# Method: A1-1261 and A1-1238 were thermally unfolded using intrinsic protein tyrosine and tryptophan fluorescence with an excitation λ=280 nm and emission λ=359 nm and CD monitored at λ=222 nm. […] As the scan rate increases, the midpoint of the transition (apparent TM) also increases.
# Thermal transitions were analyzed in terms of the observed midpoint of the transition, apparent TM, and also by a two-state irreversible model or a three-state irreversible model as described in the Supplement and the calculated parameters are summarized in FIGS. 5A to 5D. […] If the protein unfolding was at equilibrium and reversible, this apparent TM would remain constant at all scan rates. Extrapolation of the TM to a scan rate of 0° Celsius/min provides an indication of where reversible unfolding would occur under equilibrium conditions; 50° Celsius for A1-1238 and 48° Celsius for A1-1261 from both CD and fluorescence data. For the second transition observed by fluorescence that occurs with A1-1238, the TM extrapolates to about 73° Celsius in the limit of zero scan rate. Analysis by the two-state and three-state irreversible models yields an R^2>0.99 for both fluorescence and CD and a transition temperature, T*, that is independent of the temperature scan rate. In addition, the enthalpies of the transitions are independent of scan rate within experimental error FIG. 5B. FIGS. 5C and 5D show the resulting average T* and ΔHT*^‡±the standard deviation obtained from the fitting of the primary thermal transitions in FIG. 4A to 4D for CD and fluorescence and a total average for both methods. […] However, the unfolding enthalpy was statistically larger for A1-1238 (250±15 kJ/mol) than for A1-1261 (204±10 kJ/mol). The average T* and ΔHT*^‡ observed in the second fluorescence transition of A1-1238 is 89.1±2.2° Celsius and 360±14 kJ/mol.
# (§1) Prior to all spectroscopic thermal scans, protein samples were equilibrated at 10° Celsius for 15 min to obtain a stable baseline. CD thermal scans between 10 and 95° Celsius were recorded at λ=222 nm using a protein concentration of 1 or 2 μM in a 1 cm quartz cell under moderate stirring. Scan rates were 0.5, 1.0, 1.5 and 2.0° Celsius/min. Integration time for each data point was 20 s with a 1 nm bandwidth. Fluorescence thermal scans between 10 and 95 Celsius were recorded at an emission λ=359 nm after excitation λ=280 nm or λ=295 nm using 2 μM protein in a 1 cm quartz cell with moderate stirring. Scan rates were 0.4 or 0.6, 0.9, 1.6 and 2.0° Celsius/min. At each temperature, relative fluorescence intensity was collected for 4 s and averaged. Thermal scans in the presence of N-terminal peptide at 2.0° Celsius/min were preceded by 1 h incubations at 20° Celsius with 0.02-300 μM peptide.
# For an irreversible two-state transition, unfolding is kinetically controlled by a first order rate constant that varies with temperature according to the Arrhenius equation (Atkins:1994). In our analysis the inventor refers to the intermediate state as the final irreversible state for all thermal transitions involving the unfolding of A1-1261 in the absence of peptide when monitored by fluoresence, CD and DSC and for A1-1238 when monitored by CD and DSC. The following equations derived below are equally valid for any two state irreversible transitions The activation energy in going from N->I is ΔG^‡=−RT ln k^‡ and the inventor expands ln k^‡ as a function of temperature in terms of Δβ=(β−β*)=(1/RT−1/RT*) using a Taylor series, where T̂* is the temperature at which ΔG^‡=0.
# A1-1261 = target: T1, A1-1261 (Homo sapiens, UniProt P04275); experiment: Binding of free N-terminal peptide to A1-1261 from thermal unfolding enthalpy (tryptophan fluorescence); conditions: for Apparent TM of primary transition / Enthalpy of the unfolding transition ΔHT*‡: 2° Celsius/min
# T1 construct: A1-1261 (amino acids D1261-P1471); made in house
# From the text: (§2) This would imply a specific interaction between this N-terminal sequence and the A1 domain when covalently linked in sequence. The only way to examine such a stabilization using spectroscopy was the measurement of thermal unfolding via fluorescence. Since the N-terminal peptide also contains a single tyrosine residue, the excitation wavelength was changed to λ=295 nm in order to measure tryptophan fluorescence and the effect of the peptide on the unfolding of the A1-domain was observed indirectly. Thermal scans of 2 μM A1-1261 were performed as a function of increasing amounts of the N-terminal peptide at 2° Celsius/min. […] Thermal scans were also done in the presence of a peptide with the same amino acid composition, but a scrambled sequence. The inset of FIG. 7A compares the raw fluorescence thermal scans in the presence of 300 μM scrambled and N-terminal peptides. Unfolding in the presence of excess scrambled peptide was equivalent to unfolding in the absence of either peptide. […] Fitting the enthalpy data to a simple single site binding model yields a dissociation constant of ≈46±6 μM.
# as §1
# For the thermal unfolding studies in the presence of peptide, the inventor treated the change in enthalpy of unfolding, ΔHT*^‡ as an observable directly proportional to the degree of binding, X, because the T* was not dependent on peptide concentration.
# For the simple single site binding model, A1+P<->A1P, where P is the peptide, the degree of binding is given by
# where K is the binding affinity and the free peptide, [P], concentration is given in terms of the total protein, A1T, and peptide, PT, concentrations.
# platelet GP1bα [2] = experiment: Platelet pause times and translocation velocities on immobilized A1 under shear flow, parallel-plate flow chamber (Example 1); assay type: cell-based, human; conditions: 5 μM protein immobilized; as a function of shear rate
# From the text: (§3) To understand the effect of the N-terminal peptide on the function of the A1-domain of vWF, the protein was expressed with (A1-1238) and without the N-terminal peptide (A1-1261). The inventor used a flow chamber to measure the dynamics of platelet interactions with A1-1238 and A1-1261. Each domain variant was immobilized on glass slides with a modified Cu^2+ chelating chemistry that enabled surface capture via the N-terminally fused histidine tag. This method ensured reproducible capture of the proteins eliminating possible structural issues associated with nonspecific immobilization on plastic or glass. The slides were completely inert to platelets. Next, 1 mL of citrated whole blood followed by Tris buffered saline was perfused at low shear to enable platelets to attach to the surface immobilized domains. After red cells were perfused away with buffer, the translocation of the remaining attached platelets over the surfaces was recorded at each shear rate and the velocities and pause times calculated from the coordinate data of each platelet on the surface as described in the methods. […] In addition, the translocation velocities were increased for A1-1238 relative to A1-1261. To determine if this N-terminal sequence could inhibit the catch bond when free in solution, the inventor incubated surface immobilized A1-1261 with excess free peptide and added the free peptide to 1 mL of whole blood and to our perfusion buffer and performed the assay.
# (§4) Determination of platelet pause times. Determination of platelet pause times A Glycotech† rectangular parallel-plate flow chamber was mounted to slides with a chelated Cu 21 surface obtained from Microsurfaces Inc. # to which the A1-1261 and A1-1238 domains in TBS were immobilized by the 63His-Tag. Citrated whole blood (1 mL) obtained from informed consent of healthy donors with approval from the Baylor College of Medicine institutional review board followed by buffer was perfused through the chamber at 300s21 for A1-1261 and 700s21 for A1-1238 shear rate to attach platelets to the surface immobilized proteins using a syringe driven variable flow rate pump. The shear was increased incrementally and 1 min movies were recorded at 25 frames/s in phase contrast with 232 pixel binning on a Zeiss Axiocam MRm camera attached to a Zeiss Axio Observer D1 inverted microscope. Tracking analysis was performed using Mediacybernetics ImagePro Premier§. The resulting X-Y coordinate data for each platelet track was differentiated into instantaneous velocities using a Savitzky-Golay algorithm (Savitzky:1964) with a five data point window size and a second-order polynomial implemented into a Mathamatica notebook. These platelet tracks were retained for statistical analysis if the platelet was present for at least 1 s and travelled a total distance greater than 1 lm. Distance travelled in pixels was converted to lm given the camera pixel size=6.45 μm^2, pixel binning, and microscope magnification=400×. Pause times were determined by the amount of time (seconds) a platelets velocity was =0±0.13 μm/s, within the noise. Pause times for all platelet tracks are reported as the mean of the medians. Examples of this analysis for individual platelets and for multiple platelets are provided in the Supporting Information.
# (§5) Frame by frame platelet trajectory analysis. Tracking coordinates of individual platelets in units of pixels were exported from ImagePro Premier as a text file and imported into a Mathematica notebook that calculates a Savitzky-Golay first derivative of the total distance traveled over time (Savitzky:1964). The distance was calculated from the X and Y coordinates with the following equation.
# (§6) Pause times were determined from the length of time the platelet velocity remained within 0±4 pixel/sec=0.129 μm/sec as illustrated in FIG. 8B. Median pause times were calculated from velocity time profiles for all platelet tracks, stored in a list and translated to histograms for multiple platelets. […]
# platelet GP1bα [3] = target: T2, platelet GP1bα (Homo sapiens, UniProt P04275); experiment: as above; assay type: cell-based; conditions: free peptide added
# T2 construct: perfused at low shear to enable platelets to attach to the surface immobilized domains; endogenous in cells; host or cells: platelets in citrated whole blood of healthy donors
# From the text: as §3, §4, §5, §6
# [4] = target: T3, platelet GP1bα (Homo sapiens); experiment: as above; assay type: cell-based; conditions: 300 μM peptide incubated with immobilized A1-1261; 66 μM in whole blood and buffer
# T3 construct: perfused at low shear to enable platelets to attach to the surface immobilized domains; endogenous in cells; host or cells: platelets in citrated whole blood of healthy donors
# From the text: as §3, §4, §5, §6
# [5] = target: T4, Recombinant human vWF A1-1261 (amino acids D1261-P1471), N-terminal truncated variant (human, UniProt P04275 1261-1471); experiment: thermal unfolding of 2 µM A1-1261, tryptophan fluorescence at 359 nm (excitation 295 nm)
# T4 construct: Lacks the linker residues Q1238-E1260; also called truncated A1
# From the text: as §2, with “indirectly.” for “indirectly. Thermal scans of 2 μM A1-1261 were performed as a function of increasing amounts of the N-terminal peptide at 2° Celsius/min.”
# [6] = A1-1261 in presence of free N-terminal peptide
molecule,measurement,setting,value
"A1-1261: N-terminal truncated recombinant human vWF A1 domain, amino acids D1261-P1471, with N-terminal 6×His-Tag","Average T*, peptide-induced second fluorescence transition",[1]; [6],90.1±8.5 ° Celsius
same,"Average ΔHT*‡, peptide-induced second fluorescence transition",[1]; [6],33.9 ± 8.87 kcal/mol
same,"Apparent TM extrapolated to a scan rate of 0° Celsius/min, primary transition",[1]; CD and fluorescence data,48 ° Celsius
same,"Transition temperature T*, primary unfolding transition",[1]; average of CD and fluorescence,64.5±0.9 ° Celsius
same,"Unfolding enthalpy ΔHT*‡, primary unfolding transition",[1]; average of CD and fluorescence,48.8 ± 2.39 kcal/mol
same,Apparent TM of primary transition,"A1-1261; 2 μM A1-1261, absence of peptide, excitation 295 nm",53 ° Celsius
same,Enthalpy of the unfolding transition ΔHT*‡,"A1-1261; 2 μM A1-1261, low end of N-terminal peptide titration",≈ 197 kJ/mol
same,Enthalpy of the unfolding transition ΔHT*‡,"A1-1261; 2 μM A1-1261, saturating N-terminal peptide",≈ 242 kJ/mol
same,Apparent TM of primary transition,"A1-1261; 2 μM A1-1261, saturating concentrations of N-terminal peptide",55.5 ° Celsius
same,Platelet pause times on immobilized domain (comparison),platelet GP1bα [2],longer pause times than A1-1238
"QLPTGVLGEPSDAVPTVYEVTPPG (SEQ ID NO.:2) [scrambled peptide, reference compound]",Effect of peptide on unfolding enthalpy of A1-1261,A1-1261; saturating peptide concentrations,did not change the unfolding enthalpy
same,Effect of free peptide on platelet pause times or translocation velocities on immobilized A1-1238,platelet GP1bα [3],did not significantly change the pause times or translocation velocities
same,Effect of free peptide on platelet pause times on immobilized A1-1261,[4],did not significantly change the pause times or translocation velocities
"H-QLPTGVLGEPSDAVPTVYEVTPPG-OH (Synthetic control peptide, said to have the same amino acid composition as the N-terminal peptide in scrambled order) [scrambled peptide (QLPTGVLGEPSDAVPTVYEVTPPG)]",binding result,[5],no binding (tested: 300 µM)
